Test results: patent US20210155689A1 (SHANGHAI PHARMAEXPLORER, published 2021)

T1: human LAG-3 protein with hFc tag (hLAG-3-hFc protein) (human, UniProt P18627 23-450)
T1 construct: also called immunogen 1; LAG-3 extracellular domain protein; not shown: human IgG Fc fragment (hFc) of the pCpC vector
T1 sequence: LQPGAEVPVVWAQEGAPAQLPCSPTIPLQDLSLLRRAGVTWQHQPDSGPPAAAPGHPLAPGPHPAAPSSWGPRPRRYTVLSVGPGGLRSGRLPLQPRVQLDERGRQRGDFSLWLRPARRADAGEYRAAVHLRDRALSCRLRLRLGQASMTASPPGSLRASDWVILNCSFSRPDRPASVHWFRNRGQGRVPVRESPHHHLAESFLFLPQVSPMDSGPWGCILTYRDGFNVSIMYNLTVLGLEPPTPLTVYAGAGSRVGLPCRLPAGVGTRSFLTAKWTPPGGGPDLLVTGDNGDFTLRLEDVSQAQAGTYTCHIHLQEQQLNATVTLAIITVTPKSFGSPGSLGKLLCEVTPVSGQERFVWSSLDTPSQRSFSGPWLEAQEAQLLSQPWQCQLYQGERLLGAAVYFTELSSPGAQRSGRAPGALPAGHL

T2: human LAG-3 on cells (HEK293-hLAG-3 stable cell line) (human, UniProt P18627 23-525)
T2 sequence: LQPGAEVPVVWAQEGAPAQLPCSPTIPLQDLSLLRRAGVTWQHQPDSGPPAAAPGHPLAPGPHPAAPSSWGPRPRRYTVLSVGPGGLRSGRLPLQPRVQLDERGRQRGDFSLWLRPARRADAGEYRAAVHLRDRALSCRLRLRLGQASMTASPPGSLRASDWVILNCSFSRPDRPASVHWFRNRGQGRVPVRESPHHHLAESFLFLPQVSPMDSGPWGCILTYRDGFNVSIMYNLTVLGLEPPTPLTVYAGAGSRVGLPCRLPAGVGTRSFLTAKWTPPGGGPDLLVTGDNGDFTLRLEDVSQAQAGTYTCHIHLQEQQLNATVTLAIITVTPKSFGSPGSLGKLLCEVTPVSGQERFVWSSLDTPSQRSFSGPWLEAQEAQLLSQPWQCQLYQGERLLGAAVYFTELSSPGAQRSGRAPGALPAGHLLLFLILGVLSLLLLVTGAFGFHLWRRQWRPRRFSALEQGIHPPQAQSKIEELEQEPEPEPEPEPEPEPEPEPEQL

T3: monkey LAG-3 on cells (HEK293-cLAG-3 stable cell line) (monkey, UniProt P18627 24-525 (human entry))
T3 construct: Full-length monkey (Chinese monkey) LAG-3 gene expressed on HEK293 cells
T3 chain: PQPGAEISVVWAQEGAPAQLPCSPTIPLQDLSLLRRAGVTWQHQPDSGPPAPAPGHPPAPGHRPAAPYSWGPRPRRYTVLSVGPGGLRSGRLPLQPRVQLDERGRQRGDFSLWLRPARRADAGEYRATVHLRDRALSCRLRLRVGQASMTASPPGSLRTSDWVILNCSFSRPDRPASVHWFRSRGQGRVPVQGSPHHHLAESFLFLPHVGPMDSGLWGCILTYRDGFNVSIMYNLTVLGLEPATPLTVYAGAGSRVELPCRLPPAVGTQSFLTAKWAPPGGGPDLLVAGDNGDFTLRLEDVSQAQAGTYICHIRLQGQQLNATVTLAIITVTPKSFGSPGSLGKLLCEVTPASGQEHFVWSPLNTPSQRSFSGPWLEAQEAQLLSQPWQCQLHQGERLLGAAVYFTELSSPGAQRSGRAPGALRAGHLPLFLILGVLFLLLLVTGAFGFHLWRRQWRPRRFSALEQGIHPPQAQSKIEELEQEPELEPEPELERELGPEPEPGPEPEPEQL

T4: LAG-3-hFc protein (human LAG-3 extracellular region with hFc tag) (human, UniProt P18627 23-450)
T4 construct: also called hLAG-3-hFc; LAG-3 protein; not shown: human IgG Fc fragment (hFc) of the pCpC vector
T4 sequence: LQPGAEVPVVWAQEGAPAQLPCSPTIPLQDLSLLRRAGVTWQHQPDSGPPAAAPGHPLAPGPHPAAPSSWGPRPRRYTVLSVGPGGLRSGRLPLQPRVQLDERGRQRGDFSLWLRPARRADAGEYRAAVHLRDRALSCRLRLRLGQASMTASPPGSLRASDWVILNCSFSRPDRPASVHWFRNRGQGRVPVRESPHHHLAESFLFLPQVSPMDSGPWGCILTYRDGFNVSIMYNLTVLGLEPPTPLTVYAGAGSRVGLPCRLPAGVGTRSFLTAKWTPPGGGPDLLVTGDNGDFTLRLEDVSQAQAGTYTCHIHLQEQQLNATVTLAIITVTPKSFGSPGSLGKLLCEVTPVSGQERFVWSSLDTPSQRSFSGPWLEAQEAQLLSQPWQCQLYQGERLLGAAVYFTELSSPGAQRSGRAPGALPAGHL


Assays:
[1] = molecular target: T1, human LAG-3 protein with hFc tag …; assay: FACS, blocks LAG-3-hFc binding to MHC II on Raji; 7.407 nM
Experimental: (§1) The FACS reaction plate incubating the Raji cells was centrifuged to discard the supernatant. The above mixture was added as 100 μl per well to Raji cells and incubated on ice for 1-2 hours. The plate was washed twice with blocking solution (PBS, 2% fetal bovine serum) by centrifugation, added with 100 microliters of fluorescent (Alexa 488)-labeled secondary antibodies per well, and incubated on ice for 1.0 hours. The plate was washed 2-3 times by centrifugation with blocking solution (PBS, 2% fetal bovine serum), added with 100 microliters of PBS per well to suspend cells, and detected using FACS (FACS Calibur, BD) and the results were analyzed. Wherein, the IgG control was murine IgG, and the data in the table is the inhibition rate (%).

[2] = molecular target: T2, human LAG-3 on cells (HEK293-hLAG-3 …); assay: FACS, HEK293-hLAG-3, antibody 40.000 nM
Source text: (§2) The pIRES plasmid with the monkey-derived full-length gene was transfected into the HEK293 cell line to construct a HEK293 stable cell line containing monkey LAG-3 (herein referred to as HEK293-cLAG-3 stable cell line). The HEK293-hLAG-3 stable cell line and HEK293-cLAG-3 stable cell line were expanded in a T-75 cell culture flask to a 90% confluence. The medium was aspirated, and the cells were washed with HBSS (Hanks' Balanced Salt Solution) 1-2 times, then treated with a enzyme-free cell dissociation fluid (Versene solution: Life technology) and the cells were collected. The cells were washed with HBSS buffer for 1-2 times. After counted, the cells were diluted with HBSS to 1-2×10⁶ cells per ml, added with 1% goat serum blocking solution, incubated on ice for 20-30 minutes, and then washed with HBSS for 2 times by centrifugation. The collected cells were suspended in the FACS buffer (HBSS+1% BSA) to 2×10⁶ cells/ml, added as 100 microliters per well to a 96-well FACS reaction plate, added with 100 microliters per well of the antibody sample to be tested, incubated on ice for 1-2 hours. The plate was washed twice with the FACS buffer by centrifugation, added with 100 microliters of fluorescent (Alexa 488)-labeled secondary antibodies per well, and incubated on ice for 0.5-1.0 hours. The plate was washed 2-3 times with FACS buffer by centrifugation, added with 100 μl fixative solution (4% Paraformaldehyde) per well to suspend the cells. 5-10 minutes later, it was washed 1-2 times with FACS buffer by centrifugation. The cells were suspended with 100 microliters of FACS buffer, FACS (FACSCalibur, BD) was used for detection and the results were analyzed.

[3] = molecular target: T2, human LAG-3 on cells (HEK293-hLAG-3 …); assay: FACS, HEK293-hLAG-3, antibody 0.013 nM
Source text: as §2

[4] = molecular target: T3, monkey LAG-3 on cells (HEK293-cLAG-3 …); assay: FACS, HEK293-cLAG-3, antibody 1.600 nM
Source text: as §2

[5] = molecular target: T4, LAG-3-hFc protein (human LAG-3 …); assay: FACS, inhibition of LAG-3-hFc binding to MHC II on Raji cells, antibody 0.274 nM
Experimental: as §1

Row | Binder | Inhibition rate (%) [1] [%] | Mean fluorescence intensity [2] | Mean fluorescence intensity [3] | Mean fluorescence intensity [4] | Inhibition rate (%) [5] [%]
1 | 405B8H3 (mouse antibody purified from hybridoma) (antibody, V domains shown, also called mAb103-405B8H3; 405B81-13) VH: QVQLQQSGAELVRPGASVTLSCKASGYTFTDYEMHWVKQTPVHGLEWIGATDPETGNSAYNQKFKGKAIMTADKSSSTAYMELRSLTSEDSAVYYCISTGWNDWGQGTSLTVSS VL: DIKMTQSPSSMYASLGERVTITCKASQDINSYLSWFQQKPGKSPKTLIYRADRLLDGVPSRFSGSGSGQDYSLTISSLEYGDMGIYYCLQYDEFPYTFGGGTKLEIK | 87.3 | – | – | – | –
2 | 105F1E10 mouse-human chimeric antibody (antibody, V domains shown, also called mAb009-105F1E10) VH: EVQLQQSGPELVKPGASVKMSCRASGYTFTDFKMHWMKQSHGKSLEWIGYIAPNNGGTAYNQKFRGKATLTVNESSNTAYMELRSLTSEDSAVYYCVDWDDVDYWGQGTTLTVSS VL: DIKMTQSPSSMYASLGERVTITCKASQDINSYLSWFQQKSGKSPKTLIYRANRLVDGVPSRFSGSGSGQDYSLTISSLEYEDMGIYYCLQYVEFPLTFGAGTKLELK | – | 146 | 3.6 | 14.7 | -10.1
3 | 105F1E10 (mouse antibody purified from hybridoma) (antibody, V domains shown, also called mAb009-105F1E10) VH: EVQLQQSGPELVKPGASVKMSCRASGYTFTDFKMHWMKQSHGKSLEWIGYIAPNNGGTAYNQKFRGKATLTVNESSNTAYMELRSLTSEDSAVYYCVDWDDVDYWGQGTTLTVSS VL: DIKMTQSPSSMYASLGERVTITCKASQDINSYLSWFQQKSGKSPKTLIYRANRLVDGVPSRFSGSGSGQDYSLTISSLEYEDMGIYYCLQYVEFPLTFGAGTKLELK | 81 | – | – | – | –
4 | 405B8H3 mouse-human chimeric antibody (antibody, V domains shown, also called mAb103-405B8H3) VH: QVQLQQSGAELVRPGASVTLSCKASGYTFTDYEMHWVKQTPVHGLEWIGATDPETGNSAYNQKFKGKAIMTADKSSSTAYMELRSLTSEDSAVYYCISTGWNDWGQGTSLTVSS VL: DIKMTQSPSSMYASLGERVTITCKASQDINSYLSWFQQKPGKSPKTLIYRADRLLDGVPSRFSGSGSGQDYSLTISSLEYGDMGIYYCLQYDEFPYTFGGGTKLEIK | – | 158 | 4 | 29.4 | 4.3
5 | 409B11E12 (mouse antibody purified from hybridoma) (antibody, V domains shown, also called mAb104-409B11E12) VH: QVQLQQSGAELVRPGASVTLSCKASGYTFTDYEMHWVKQTTVHGLEWIGATDPETSYSAYNQKFKGKAILTADKSSSTAYMELRSLTSEDSAVYYCIATGWNDWGQGTSLTVSS VL: DLKMTQSPSSMYASLGERVTITCKASQDINSYLSWFQQKPGKSPKTLIYRANRLLDGVPSRFSGSGSGQDYSLTISSLEYEDMGIYYCLQYDEFPYTFGGGTKLEIK | 93.4 | – | – | – | –
6 | 409D4E10 mouse-human chimeric antibody (antibody, V domains shown, also called mAb112-409D4E10) VH: QVQLQQSGAELVRPGASVTLSCKASGNTFTDYEMHWVKQTPVHGLEWIGATDPETDNTAYNQKFKGKAILTTDKSSSTAYMELRSLTSEDSAVYYCITSGWNDWGQGTSLTVSS VL: DIKMTQSPSSMYASLGERVTITCKASQDINSYLSWFQQKPGKSPKTLIYRANRLLDGVPSRFSGSGSGQDYSLTISSLEYEDMGIYYCLQYNEFPYTFGGGTKLEIK | – | 140 | 4 | 25.8 | 11.3
7 | 409D4E10 (mouse antibody purified from hybridoma) (antibody, V domains shown, also called mAb112-409D4E10) VH: QVQLQQSGAELVRPGASVTLSCKASGNTFTDYEMHWVKQTPVHGLEWIGATDPETDNTAYNQKFKGKAILTTDKSSSTAYMELRSLTSEDSAVYYCITSGWNDWGQGTSLTVSS VL: DIKMTQSPSSMYASLGERVTITCKASQDINSYLSWFQQKPGKSPKTLIYRANRLLDGVPSRFSGSGSGQDYSLTISSLEYEDMGIYYCLQYNEFPYTFGGGTKLEIK | 93 | – | – | – | –
8 | 409B11E12 mouse-human chimeric antibody (antibody, V domains shown, also called mAb104-409B11E12) VH: QVQLQQSGAELVRPGASVTLSCKASGYTFTDYEMHWVKQTTVHGLEWIGATDPETSYSAYNQKFKGKAILTADKSSSTAYMELRSLTSEDSAVYYCIATGWNDWGQGTSLTVSS VL: DLKMTQSPSSMYASLGERVTITCKASQDINSYLSWFQQKPGKSPKTLIYRANRLLDGVPSRFSGSGSGQDYSLTISSLEYEDMGIYYCLQYDEFPYTFGGGTKLEIK | – | 150 | 4.1 | 32.8 | 4.4
9 | 556F6B8 mouse-human chimeric antibody (antibody, V domains shown, also called mAb123-556F6B8; 556F8B8) VH: RVQLKQSGPGLVQPSQSLSITCTVSGFSLIKYGVHWVRQSPGEGLEWLGVIWRGGITDYNAAFMSRLSITKDNSKSQVFFKMNSLQADDTAIYYCAKWDGPLAMDYWGQGTSVTVSS VL: DIVMTQSHKFLSTSVGDRVSITCKASQDVGTTVAWYQQKPGQSPKLLIYWASTRHTGVPDRFTGSGSGTDFTLTISNVQSEDLADYFCQQYSSYPYTFGGGTKLEIK | – | 123 | 4.2 | 19.2 | 21.5
10 | 556F6B8 (mouse antibody purified from hybridoma) (antibody, V domains shown, also called mAb123-556F6B8) VH: RVQLKQSGPGLVQPSQSLSITCTVSGFSLIKYGVHWVRQSPGEGLEWLGVIWRGGITDYNAAFMSRLSITKDNSKSQVFFKMNSLQADDTAIYYCAKWDGPLAMDYWGQGTSVTVSS VL: DIVMTQSHKFLSTSVGDRVSITCKASQDVGTTVAWYQQKPGQSPKLLIYWASTRHTGVPDRFTGSGSGTDFTLTISNVQSEDLADYFCQQYSSYPYTFGGGTKLEIK | 93.3 | – | – | – | –
